Results taken from publication PMC12442453.

Target: T1, human EPOR, endogenous on TF-1 cells (human (endogenous in TF-1)) (UniProt P19235)
T1 sequence: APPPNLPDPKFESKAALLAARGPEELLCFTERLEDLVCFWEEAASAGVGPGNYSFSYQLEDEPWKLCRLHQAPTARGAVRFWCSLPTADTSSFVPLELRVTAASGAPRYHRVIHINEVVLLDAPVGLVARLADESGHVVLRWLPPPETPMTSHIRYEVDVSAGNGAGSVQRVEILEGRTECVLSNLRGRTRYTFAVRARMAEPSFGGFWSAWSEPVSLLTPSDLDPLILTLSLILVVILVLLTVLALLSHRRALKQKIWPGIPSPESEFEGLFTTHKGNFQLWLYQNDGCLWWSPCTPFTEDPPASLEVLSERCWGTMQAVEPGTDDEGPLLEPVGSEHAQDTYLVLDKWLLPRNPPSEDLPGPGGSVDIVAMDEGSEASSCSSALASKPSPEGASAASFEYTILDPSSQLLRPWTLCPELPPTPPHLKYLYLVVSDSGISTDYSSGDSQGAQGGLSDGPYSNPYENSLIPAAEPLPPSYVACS

B1: Db-Fc 1.3 (Fc fusion)
VH: EVQLVESGGGLVQPGGSLRLSCAASGFNLRSYYMHWVRQAPGKGLEWVASISPHYGYTYYADSVKGRFTISADTSKNTAYLQMNSLRAEDTAVYYCARHGYSAMDYWGQGTLVTVSS
VL: DIQMTQSPSSLSASVGDRVTITCRASQSVSSAVAWYQQKPGKAPKLLIYSASSLYSGVPSRFSGSRSGTDFTLTISSLQPEDFATYYCQQSSDSLFTFGQGTKVEIK
UT-7/Epo cell proliferation, EC50; Tb-Fc2 fraction of variant 1.3 (putative tetramer): 2 nM | UT-7/Epo cell proliferation, maximum response; Tb-Fc2 fraction of variant 1.3 (putative tetramer): 2.2e+06 RLU
